The values that follow come from article PMC3466257.

The experiment deals with immobilized fibrin (UniProt P02679). Description: cell-free flow-based adhesion assay of protein-coated microspheres; 10-µm polystyrene microspheres coated with immunopurified CD44 or human IgG (2×10^6/ml in DPBS, 0.1% BSA) perfused for 5 min at 37°C over immobilized fibrin in a parallel plate flow chamber, 0.25 to 0.5 dyn/cm^2; interacting microspheres counted by phase-contrast videomicroscopy.

In turn, “CD44s immunopurified from PDGF-treated HL60 human myeloid cells (from UniProt P16070-12 21-361) (receptor)” returned a reduction of binding relative to CD44s from untreated HL60 cells of 30%.
